Source: US20030191058A1 (WALTER AND ELIZA INSTITUTE OF MEDICAL RESEARCH, published 2003)
Square brackets hold non-standard residues; d marks the D form. * marks the point of attachment. Biotin = O=C1N[C@H]2[C@H](CS[C@H]2CCCCC(=O)*)N1; pY = N[C@@H](Cc1ccc(OP(=O)(O)O)cc1)C(=O)O

T1: recombinant murine SOCS-3, hexahistidine tagged (expressed from pET15b in E. coli, refolded) (murine, UniProt O35718 1-225)
T1 construct: also called recombinant SOCS-3; suppressor of cytokine signalling 3; not shown: hexahistidine tag from vector pET15b (NdeI/BamHI cloning)
T1 sequence (looked up): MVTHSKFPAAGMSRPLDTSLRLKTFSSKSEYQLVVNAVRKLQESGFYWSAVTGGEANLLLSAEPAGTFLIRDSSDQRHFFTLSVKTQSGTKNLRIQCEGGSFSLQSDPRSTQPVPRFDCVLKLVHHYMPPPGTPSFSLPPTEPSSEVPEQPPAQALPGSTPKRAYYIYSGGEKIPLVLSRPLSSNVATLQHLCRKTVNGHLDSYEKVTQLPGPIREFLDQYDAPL

B1: pY765 STVVHSG(pY)RHQVPSV gp130 (758-772) (peptide)
peptide: Biotin-STVVHSG[pY]RHQVPSV-NH2
SMILES: CC(C)[C@H](NC(=O)[C@H](CO)NC(=O)[C@@H]1CCCN1C(=O)[C@@H](NC(=O)[C@H](CCC(N)=O)NC(=O)[C@H](Cc1c[nH]cn1)NC(=O)[C@H](CCCNC(=N)N)NC(=O)[C@H](Cc1ccc(OP(=O)(O)O)cc1)NC(=O)CNC(=O)[C@H](CO)NC(=O)[C@H](Cc1c[nH]cn1)NC(=O)[C@@H](NC(=O)[C@@H](NC(=O)[C@@H](NC(=O)[C@H](CO)NC(=O)CCCC[C@@H]1SC[C@@H]2NC(=O)N[C@@H]21)[C@@H](C)O)C(C)C)C(C)C)C(C)C)C(N)=O
notes: also called biotinylated gp130(758-772) phosphopeptide; member of the group m25
B2: pY914 QTVRQGG(pY)MPQ gp130 (907-917) (peptide)
peptide: Biotin-QTVRQGG[pY]MPQ-NH2
SMILES: CSCC[C@H](NC(=O)[C@H](Cc1ccc(OP(=O)(O)O)cc1)NC(=O)CNC(=O)CNC(=O)[C@H](CCC(N)=O)NC(=O)[C@H](CCCNC(=N)N)NC(=O)[C@@H](NC(=O)[C@@H](NC(=O)[C@H](CCC(N)=O)NC(=O)CCCC[C@@H]1SC[C@@H]2NC(=O)N[C@@H]21)[C@@H](C)O)C(C)C)C(=O)N1CCC[C@H]1C(=O)N[C@@H](CCC(N)=O)C(N)=O
notes: also called biotinylated gp130(907-917) phosphopeptide; member of the group m25
B3: biotinylated gp130(674-688) phosphopeptide (peptide)
peptide: Biotin-FNSKDQM[pY]SDGNFTD-NH2
SMILES: CSCC[C@H](NC(=O)[C@H](CCC(N)=O)NC(=O)[C@H](CC(=O)O)NC(=O)[C@H](CCCCN)NC(=O)[C@H](CO)NC(=O)[C@H](CC(N)=O)NC(=O)[C@H](Cc1ccccc1)NC(=O)CCCC[C@@H]1SC[C@@H]2NC(=O)N[C@@H]21)C(=O)N[C@@H](Cc1ccc(OP(=O)(O)O)cc1)C(=O)N[C@@H](CO)C(=O)N[C@@H](CC(=O)O)C(=O)NCC(=O)N[C@@H](CC(N)=O)C(=O)N[C@@H](Cc1ccccc1)C(=O)N[C@H](C(=O)N[C@@H](CC(=O)O)C(N)=O)[C@@H](C)O

Legend:
[1] = biological target: recombinant murine SOCS-3, hexahistidine tagged (expressed from pET15b in E. coli, refolded) (murine) (UniProt O35718); experiment: SPR competition assay, soluble peptide against immobilised biotin-gp130(750-764) phosphopeptide
[2] = biological target: recombinant murine SOCS-3, hexahistidine tagged (expressed from pET15b in E. coli, refolded) (murine) (UniProt O35718); experiment: SPR competition assay, reference gp130(750-764) phosphopeptide
[3] = biological target: recombinant murine SOCS-3, hexahistidine tagged (expressed from pET15b in E. coli, refolded) (murine) (UniProt O35718); experiment: SPR competition assay, soluble peptide against immobilised biotin-gp130(750-764) phosphopeptide; remark: listed apart in the source
[4] = biological target: EPOR/gp130Y757F chimeric receptor (EPO receptor extracellular domain and gp130 cytoplasmic domain with tyrosine 757 mutated to phenylalanine); experiment: cell-based or functional assay
[5] = biological target: EPOR/gp130 chimeric receptor (erythropoietin receptor extracellular domain and gp130 cytoplasmic domain); experiment: cell-based or functional assay
[6] = biological target: recombinant murine SOCS-3, hexahistidine tagged (expressed from pET15b in E. coli, refolded) (murine) (UniProt O35718); experiment: SPR competition assay, soluble peptide against immobilised biotin-gp130(750-764) phosphopeptide, ~100 nM SOCS-3
[7] = biological target: T1, recombinant murine SOCS-3, …; experiment: pull-down: biotinylated phosphopeptide on streptavidin-agarose, eluate on SDS-PAGE
Method: After washing and elution of bound protein, samples were analyzed by SDS-PAGE.
Biotinylated phosphopeptides were also prepared corresponding to the known tyrosine phosphorylation sites in murine STAT-1 (Y701) and STAT-3 (Y705). […] Following removal of the protein solution, resin was washed twice with 1 mL PBS/0.1% v/v Tween-20, and bound protein eluted with 25 μL of SDS sample buffer containing 10 mM DTT, Samples were analyzed by SDS-PAGE on 12% w/v polyacrylamide gels.

Molecule | IC50 analogue/IC50 wild-type [2] | IC50 [6] [µM] | other results
JAK1 activation loop phosphopeptide IETDKE(pY)YTVKDDRD |  |  | IC50 [1]: 230 µM
JAK2 activation loop phosphopeptide LPQDKE(pY)YKVKEPGE |  |  | fold weaker affinity than gp130(750-764) [2]: 10000 fold
JAK3 activation loop phosphopeptide LPLGKD(PY)YVVREPGQ |  |  | IC50 [1]: 140 µM; IC50 [3]: 110 µM; fold weaker affinity than gp130(750-764) [2]: 1000 fold
SOCS-3 expressed in transiently transfected 293T cells (Flag-tagged, detected with anti-Flag antibody) |  |  | 50% inhibition of EPO-induced APRE-luc luciferase activity in 293T cells (amount of SOCS-3 DNA transfected) [4]: 54 ng; 50% inhibition of EPO-induced APRE-luc luciferase activity in 293T cells (amount of SOCS-3 DNA transfected) [5]: 4 ng
gp130(750-764) phosphopeptide analogue STASTVE(pY)ATVVHSG | 0.65 | 0.072 | 
gp130(750-764) phosphopeptide analogue STASTVE(pY)STAVHSG | 31 | 3.4 | 
gp130(750-764) phosphopeptide analogue STASTVE(pY)STVAHSG | 10 | 1.1 | 
gp130(750-764) phosphopeptide analogue STASTVE(pY)STVVASG | 7 | 0.77 | 
truncated gp130 phosphopeptide Ac(pY)STVVHSG | 87 | 9.6 | 
truncated gp130 phosphopeptide AcE(pY)STVVHSG | 8.8 | 0.97 | 
truncated gp130 phosphopeptide AcTVE(pY)STVVHSG | 1.1 | 0.12 | 
truncated gp130 phosphopeptide STASTVE(pY)STVV | 10 | 1.1 | 
truncated gp130 phosphopeptide STASTVE(pY)STVVH | 0.7 | 0.077 | 
truncated gp130 phosphopeptide STASTVE(pY)STVVHS | 0.55 | 0.061 | 
truncated gp130 phosphopeptide analogue AcAE(pY)STVVHSG | 5.3 | 0.58 | 
truncated gp130 phosphopeptide analogue AcVA(pY)STVVHSG | 5 | 0.55 | 
B1 |  |  | binding result [7]: no binding (tested: 50 µg/mL)
B2 |  |  | binding result [7]: no binding (tested: 50 µg/mL)
B3 |  |  | binding result [7]: no binding (tested: 50 µg/mL)
